Data: patent publication US20220242962A1 (APTEVO RESEARCH AND DEVELOPMENT, published 2022)
Positions count from the first letter of the chain named. Numbers in names are those of the source.

B1: TSC 1005 (other)
chain: EPKSSDKTHTCPPCPAPPVAAPSVFLFPPKPKDTLMISRTPEVTCVVVDVSHEDPEVKFNWYVDGVEVHNAKTKPREEQYNSTYRVVSVLTVLHQDWLNGKEYKCAVSNKALPAPIEKTISKAKGQPREPQVYTLPPSRDELTKNQVSLTCLVKGFYPSDIAVEWESNGQPENNYKTTPPVLDSDGSFFLYSKLTVDKSRWQQGNVFSCSVMHEALHNHYTQKSLSLSPG
notes: IgG1 Fc with E233P, L234V, L235A, deletion of G236, G237A, K322A (EU); also called PVAdel TSC01005
B2: FXX01066 (bispecific antibody)
chain: EVQLVQSGAEVKKPGASVKVSCKASGYTFTSYWMNWVRQAPGQGLEWMGNIYPSGGSTNYAQKFQGRVTMTVDTSTSTVYMELSSLRSEDTAVYYCASFSDGYYAYAMDYWGQGTLVTVSSGGGGSGGGGSGGGGSGGGGSEIVMTQSPATLSLSPGERATLSCRASQSVSSYLNWYQQKPGQAPRLLIYYASRRHTGIPARFSGSGSGTDFTLTISSLQPEDFAVYYCQQGYNLPYTFGQGTKVEIKEPKSSDKTHTCPPCPAPPAAAPSVFLFPPKPKDTLMISRTPEVTCVVVDVSHEDPEVKFNWYVDGVEVHNAKTKPREEQYNSTYRVVSVLTVLHQDWLNGKEYKCAVSNKALPAPIEKTISKAKGQPREPQVYTLPPSRDELTKNQVSLTCLVKGFYPSDIAVEWESNGQPENNYKTTPPVLDSDGSFFLYSKLTVDKSRWQQGNVFSCSVMHEALHNHYTQKSLSLSPGGGGSPSSYVLTQPPSVSVAPGQTARITCGGNNIGSKSVNWFQQKPGQAPVLVVYDDSGRPSGIPERFSGSTSGNTATLTISRVEAGDEADYYCQVWDSSSDHVVFGGGTKLTVLGGGGSGGGGSGGGGSGGGGSQVQLVESGGGVVQPGRSLRLSCAASGFTLSYYGMHWVRQAPGKGLEWVAAISHDGSDKYYADSVKGRFTISRDNSKNTLYLQMNSLRAEDTAVYYCSNDQFDPWGQGTLVTVSSR
notes: ADAPTIR scFv-Fc-scFv, anti-4-1BB (VH-VL) N-terminal, anti-OX40 C-terminal, PAA (del) Fc; also called FX01066

How the values were obtained:
[1] = target: T1, Fc gamma receptor RIIIB (human, UniProt O75015 17-200); assay: SPR, Fc captured, receptor as analyte
T1 construct: soluble SPR analyte
T1 sequence (O75015 17-200): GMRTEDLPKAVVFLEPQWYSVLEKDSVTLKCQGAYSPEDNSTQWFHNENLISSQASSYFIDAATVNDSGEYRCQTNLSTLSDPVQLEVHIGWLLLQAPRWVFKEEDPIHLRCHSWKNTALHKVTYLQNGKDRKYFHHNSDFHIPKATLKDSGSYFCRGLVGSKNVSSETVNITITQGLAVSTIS
Experimental: (§1) Fc mutations to be potentially integrated into an ADAPTIR™ bispecific construct were analyzed for binding to the common Fc receptors (human and cyno) and C1Q, which is a component of the complement activation system. SPR experiments were conducted at 25° C. in HBS-EP+ buffer on a Biacore T200 system.
(§2) For these experiments, all four flow cells of a CM5 sensor chip were immobilized with goat F(ab′)2 anti-human Fc (Jackson ImmunoResearch) to a response level of ˜4000 RU. Fc variants and wild type Fc were diluted to 100 nM in HBS-EP+ and captured on the surface of the chip for 120 seconds at a flow rate of 10 μL/min. Fcγ receptors (human and cyno, all purchased from R&D Systems) and complement (C1Q, purchased from Quidel Corporation and Complement Technology, Inc) were diluted in HBS-EP+ and then flowed as analytes at 30 μL/min for 120 seconds followed by a 120 seconds dissociation. Regeneration was achieved by flowing 10 mM glycine pH 1.7 at 30 μL/min for 30 seconds followed by a 60 seconds stabilization. Flow cell 1 was always left as a blank (no captured protein) for purposes of background signal subtraction. Blank-subtracted sensorgrams for each captured Fc variant were inspected for the presence of binding to any of the Fcγ receptor proteins or complement. There are polymorphisms in the Human Fc receptors IIA and RIIIA, so both sequences were tested for binding.

[2] = target: T2, Fc gamma receptor RIIA R167 (human, UniProt P12318 36-218); assay: SPR, Fc captured, receptor as analyte
T2 construct: soluble SPR analyte
T2 sequence (looked up): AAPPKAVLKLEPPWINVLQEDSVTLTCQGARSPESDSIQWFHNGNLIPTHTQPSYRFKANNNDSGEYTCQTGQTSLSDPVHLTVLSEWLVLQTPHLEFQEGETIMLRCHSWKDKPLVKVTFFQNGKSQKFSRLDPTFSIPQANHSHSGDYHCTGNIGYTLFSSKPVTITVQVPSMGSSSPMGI
Experimental: as §1, §2

[3] = target: T3, Fc gamma receptor RIIB/C (human, UniProt P31994 46-217); assay: SPR, Fc captured, receptor as analyte
T3 construct: soluble SPR analyte
T3 sequence (looked up): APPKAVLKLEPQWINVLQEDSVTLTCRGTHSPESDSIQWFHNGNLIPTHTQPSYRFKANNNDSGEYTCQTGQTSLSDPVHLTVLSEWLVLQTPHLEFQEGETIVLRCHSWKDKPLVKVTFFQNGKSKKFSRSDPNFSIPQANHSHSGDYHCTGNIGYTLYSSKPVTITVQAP
Experimental: as §1, §2

[4] = target: T4, Fc gamma receptor RIIA H167 (human, UniProt P12318 36-218); assay: SPR, Fc captured, receptor as analyte
T4 construct: soluble SPR analyte
T4 sequence (looked up): T2 sequence (looked up) with R132H
Experimental: as §1, §2

[5] = target: T5, C1Q (UniProt P02745 23-245; P02746 28-253; P02747 29-245); assay: SPR, Fc captured, C1Q as analyte
T5 construct: also called complement C1Q
T5 sequence (P02745 23-245 limits assumed, chain 1 of 3): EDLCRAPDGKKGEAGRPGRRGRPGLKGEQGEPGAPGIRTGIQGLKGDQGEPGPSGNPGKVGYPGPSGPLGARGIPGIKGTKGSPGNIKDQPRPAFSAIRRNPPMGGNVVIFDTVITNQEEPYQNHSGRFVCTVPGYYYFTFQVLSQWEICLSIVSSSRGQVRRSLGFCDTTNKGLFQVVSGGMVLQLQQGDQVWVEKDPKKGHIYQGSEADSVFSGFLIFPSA
T5 sequence (P02746 28-253 limits assumed, chain 2 of 3): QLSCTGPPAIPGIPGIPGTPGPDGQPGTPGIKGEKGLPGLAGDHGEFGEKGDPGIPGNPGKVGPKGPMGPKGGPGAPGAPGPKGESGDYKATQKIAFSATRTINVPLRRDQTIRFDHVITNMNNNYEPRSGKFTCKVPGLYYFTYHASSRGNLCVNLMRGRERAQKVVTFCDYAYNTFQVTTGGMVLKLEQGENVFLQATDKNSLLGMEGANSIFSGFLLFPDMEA
T5 sequence (P02747 29-245 limits assumed, chain 3 of 3): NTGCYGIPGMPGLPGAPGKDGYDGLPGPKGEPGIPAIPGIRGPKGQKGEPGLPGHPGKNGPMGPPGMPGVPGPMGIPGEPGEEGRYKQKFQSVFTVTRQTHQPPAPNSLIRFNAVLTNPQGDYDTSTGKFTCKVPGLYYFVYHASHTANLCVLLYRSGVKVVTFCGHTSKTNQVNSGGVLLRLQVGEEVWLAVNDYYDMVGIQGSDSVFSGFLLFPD
Experimental: as §1, §2

[6] = target: T6, Fc gamma receptor RI (human, UniProt P12314 16-288); assay: SPR, Fc captured, receptor as analyte, relative to wild type Fc
T6 construct: also called FcγRI
T6 sequence (P12314 16-288 limits assumed): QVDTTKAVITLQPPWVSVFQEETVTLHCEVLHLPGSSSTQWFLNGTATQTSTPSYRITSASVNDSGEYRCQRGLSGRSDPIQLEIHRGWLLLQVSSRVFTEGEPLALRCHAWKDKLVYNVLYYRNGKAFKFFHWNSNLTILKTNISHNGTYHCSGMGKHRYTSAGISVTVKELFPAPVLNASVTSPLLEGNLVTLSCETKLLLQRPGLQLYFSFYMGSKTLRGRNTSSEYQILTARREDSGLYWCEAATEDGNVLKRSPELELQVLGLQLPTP
Experimental: as §1, §2

[7] = target: T7, Fc gamma receptor RIIIA V176 (human, UniProt P08637 17-208); assay: as above
T7 construct: soluble SPR analyte
T7 sequence (P08637 17-208 F176V): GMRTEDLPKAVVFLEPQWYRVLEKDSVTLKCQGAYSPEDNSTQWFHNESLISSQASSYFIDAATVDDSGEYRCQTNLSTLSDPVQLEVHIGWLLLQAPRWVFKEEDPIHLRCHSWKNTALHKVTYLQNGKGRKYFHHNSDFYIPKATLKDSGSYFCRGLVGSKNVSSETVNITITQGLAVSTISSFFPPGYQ
Experimental: as §1, §2

[8] = target: T8, Fc gamma receptor RIIIB on CHO-K1SV cells (human, UniProt O75015 17-200); assay: flow cytometry, CHO-K1SV transfectants
T8 construct: whole, on cells
T8 sequence (O75015 17-200): as the sequence (O75015 17-200) above
Experimental: (§3) CHO-K1SV cells stably transfected with a series of FcγR receptors were incubated with each of the […] listed in Table 23. A typical experiment labeled approximately 100,000 cells per well, in 96-well plates, with a range of binding molecule concentrations of 1 to 1000 nM, in 100 μl of PBS buffer with 0.2% BSA and 2 mM EDTA, for 30 minutes on ice, followed by washes and incubation with PE-labeled minimum cross species reactive secondary antibody, goat anti-human IgG Fcγ, F(ab′)2 ([…]) for 30 minutes to 1 hour on ice. Signal from bound molecules was detected using a LSR-II™ flow cytometer (BD Biosciences) and analyzed by FlowJo flow cytometry analysis software. Mean fluorescence intensity (MFI) of bound molecules on cells was determined after exclusion of doublets.

[9] = target: T9, Fc gamma receptor RIIIA F158 on CHO-K1SV cells (human, UniProt P08637 17-254); assay: flow cytometry, CHO-K1SV transfectants
T9 construct: whole, on cells
T9 sequence (P08637 17-254): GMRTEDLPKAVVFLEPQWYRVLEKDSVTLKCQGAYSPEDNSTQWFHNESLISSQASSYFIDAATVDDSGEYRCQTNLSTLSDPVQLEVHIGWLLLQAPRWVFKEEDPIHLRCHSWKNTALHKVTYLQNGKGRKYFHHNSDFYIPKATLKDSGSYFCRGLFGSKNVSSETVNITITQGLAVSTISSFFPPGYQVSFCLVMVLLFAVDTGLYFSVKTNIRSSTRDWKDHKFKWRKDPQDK
Experimental: as §3

[10] = target: T10, Cyno RI (cynomolgus monkey, UniProt Q8SPW5 16-292); assay: SPR, Fc captured, receptor as analyte
T10 construct: also called cyno RI receptor
T10 sequence (Q8SPW5 entry or part of it limits assumed): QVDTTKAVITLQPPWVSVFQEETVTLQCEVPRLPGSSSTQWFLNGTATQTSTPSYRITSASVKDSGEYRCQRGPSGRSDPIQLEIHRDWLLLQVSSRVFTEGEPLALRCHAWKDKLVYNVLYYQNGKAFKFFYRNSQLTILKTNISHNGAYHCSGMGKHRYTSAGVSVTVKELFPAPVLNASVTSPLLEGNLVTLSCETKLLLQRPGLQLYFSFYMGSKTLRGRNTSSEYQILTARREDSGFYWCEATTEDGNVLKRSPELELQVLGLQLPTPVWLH
Experimental: as §2

[11] = target: T11, Cyno RIII (cynomolgus monkey, UniProt Q8SPW2 17-208); assay: SPR, Fc captured, receptor as analyte
T11 construct: extracellular domain
T11 sequence (Q8SPW2 17-208): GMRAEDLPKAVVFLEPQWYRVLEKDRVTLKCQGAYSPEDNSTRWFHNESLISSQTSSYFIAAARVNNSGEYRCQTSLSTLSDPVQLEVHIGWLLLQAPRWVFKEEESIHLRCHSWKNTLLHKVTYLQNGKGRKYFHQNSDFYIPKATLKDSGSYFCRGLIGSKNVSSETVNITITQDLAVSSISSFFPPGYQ
Experimental: as §2

[12] = target: T12, Full-length Human 4-1BB (human, UniProt Q07011 24-255); assay: flow cytometry, Jurkat cells expressing human 4-1BB
T12 construct: also called FOB005; CD137
T12 sequence (Q07011 24-255): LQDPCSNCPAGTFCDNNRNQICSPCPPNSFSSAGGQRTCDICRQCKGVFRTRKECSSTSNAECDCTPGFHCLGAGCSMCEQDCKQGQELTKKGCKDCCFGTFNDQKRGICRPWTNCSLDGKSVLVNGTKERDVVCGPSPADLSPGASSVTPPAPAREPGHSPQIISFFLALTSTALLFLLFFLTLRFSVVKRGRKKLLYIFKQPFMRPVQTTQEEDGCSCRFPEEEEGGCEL
Experimental: (§4) Serial dilutions of ADAPTIR™ constructs were incubated with cells transfected with human or cynomolgus ECD and subsequently labelled with a fluorescently-conjugated goat-α-human Fc secondary antibody. […] (See Example 16.)

[13] = target: T13, Full-length Cyno OX40 (cynomolgus monkey, UniProt P43489 29-277 (human entry)); assay: flow cytometry on CHOK1SV cells transfected with cynomolgus OX40, goat anti-human Fc secondary antibody, MFI (Mean)
T13 construct: on CHO-K1SV cells; also called OXF004; cynomolgus OX40
T13 chain: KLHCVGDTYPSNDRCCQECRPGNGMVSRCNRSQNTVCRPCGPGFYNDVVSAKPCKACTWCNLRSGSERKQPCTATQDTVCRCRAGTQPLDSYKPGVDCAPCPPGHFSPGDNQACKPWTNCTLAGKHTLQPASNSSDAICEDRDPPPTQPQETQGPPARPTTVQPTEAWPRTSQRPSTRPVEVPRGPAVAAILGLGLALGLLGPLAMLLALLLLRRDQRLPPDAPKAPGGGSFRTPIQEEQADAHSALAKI
Experimental: as §4

| Binder | binding result [1] | binding result [2] | binding result [3] | binding result [4] | binding result [5] | binding result [6] | binding result [7] | binding result [8] | binding result [9] | binding result [10] | binding result [11] | EC50 [12] | Max MFI [12] | EC50 (read off the curve) [13] |
| --- | --- | --- | --- | --- | --- | --- | --- | --- | --- | --- | --- | --- | --- | --- |
| B1 | no binding | no binding | no binding | no binding | no binding | binds | binds | no binding (tested: 1 to 1000 nM) | no binding (tested: 1 to 1000 nM) | no binding | no binding |  |  |  |
| B2 |  |  |  |  |  |  |  |  |  |  |  | 0.27 nM | 4540 MFI | ~2 nM |
